# Source: patent US20240343803A1 (SHANDONG SIMCERE BIOPHARMACEUTICAL, published 2024)
# T1: human PVRIG-his (AcroBiosystems, Cat NO. PVG-H52H4) (human, UniProt Q6DKI7 41-171, limits assumed)
# T1 construct: also called human PVRIG protein
# T1 sequence (looked up): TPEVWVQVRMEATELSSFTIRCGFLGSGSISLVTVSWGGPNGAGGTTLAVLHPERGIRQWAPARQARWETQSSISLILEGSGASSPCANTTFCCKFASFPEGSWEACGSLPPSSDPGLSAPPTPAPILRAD
# T2: Full-length human TIGIT on CHO-K1 cells (CHO-K1 human TIGIT) (human, UniProt Q495A1 22-244)
# T2 construct: NCBI XP_024309156.1; the entry includes the signal peptide (limits not recoverable); The strain (high, medium, low) is named under assay; also called high expression strain 1D2; medium expression strain 2D10
# T2 sequence: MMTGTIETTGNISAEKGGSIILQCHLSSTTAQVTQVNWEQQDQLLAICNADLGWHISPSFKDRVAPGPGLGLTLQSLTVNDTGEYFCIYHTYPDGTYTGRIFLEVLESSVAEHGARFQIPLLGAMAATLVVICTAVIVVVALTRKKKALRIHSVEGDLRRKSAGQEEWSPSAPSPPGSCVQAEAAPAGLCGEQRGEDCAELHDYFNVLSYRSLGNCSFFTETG
# T3: Fusion protein of extracellular domain of human TIGIT and mouse IgG2a Fc fragment (human TIGIT ECD-mFc) (human)
# T3 construct: The entry includes the signal peptide (limits not recoverable) and the mouse IgG2a Fc
# T3 chain: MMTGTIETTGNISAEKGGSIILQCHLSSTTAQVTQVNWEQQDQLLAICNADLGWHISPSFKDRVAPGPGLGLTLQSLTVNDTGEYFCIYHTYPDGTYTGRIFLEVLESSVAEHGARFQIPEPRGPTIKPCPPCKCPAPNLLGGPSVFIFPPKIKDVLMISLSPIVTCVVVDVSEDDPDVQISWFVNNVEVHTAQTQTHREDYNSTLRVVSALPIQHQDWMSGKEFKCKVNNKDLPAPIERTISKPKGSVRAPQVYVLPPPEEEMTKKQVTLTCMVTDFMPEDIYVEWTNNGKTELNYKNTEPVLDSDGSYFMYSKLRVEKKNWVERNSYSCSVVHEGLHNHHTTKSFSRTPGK
# B1: PVRIG-A50 (Fc fusion)
# chain: EVQLVESGGGLVQPGGSLRLSCAASGFTFSYYDMSWVRQAPGKGLEWVSTINSNGGRTSYVDSVKGRFTISRDNTKNTLYLQMNSLKPEDTAVYYCVEGDPHNFGLENLSLRDFGSWGQGTQVTVSS
# notes: heavy chain antibody VHH-hinge-CH2-CH3, human IgG1 constant part; also called PVRIG-50; not shown: human IgG1 hinge-CH2-CH3
# B2: PVRIG-A118 (Fc fusion)
# chain: QVQLVESGGGLVQAGGSLRLSCAASETYFDLYVMGWYRQAPGKDRELVATITYTGSIKIVDSVKDRFTISRGDAKNTVSLQMSSLKPEDTAVYFCNADPSGLGRKVYWGQGTQVTVSS
# notes: heavy chain antibody VHH-hinge-CH2-CH3, human IgG1 constant part; not shown: human IgG1 hinge-CH2-CH3
# B3: PVRIG-A105 (Fc fusion)
# chain: EVQLVESGGGLVQAGGSLRLSCAASGRTFDRHTMTWFRQAPGKEREFVATASRIPGDTYYSHSVKGRFTISRDNAKNTVYLQLNNLKPEDTAVYYCAATSAYCSEVDCYEKGSWYDNWGQGIQVTVSS
# notes: as for B2
# B4: TIGIT-002-H4L3 (antibody, V domains shown)
# VH: EVQLQESGPGLVKPSETLSLTCAVSGYSITSDSWNWIRQPPGKKLEYIGYISYSGNTYYNPSLKSRVTISRDTSKNQFSLKLSSVTAADTAVYYCARLDFSNYGGAVDYWGQGTTVTVSS
# VL: DIVMTQSPDSLAVSLGERATINCKASQNVRTAVAWYQQKPGQSPKLMIYSASYRYTGVPDRFSGSGSGTDFTLTISSLQAEDVAVYYCQQYYTTPWTFGGGTKVEIK
# notes: Humanized anti-TIGIT antibody
# B5: TIGIT-005-H2L1d (antibody, V domains shown)
# VH: EVQLVQSGAEVKKPGASVKVSCKASGYAFTNYLIEWVRQAPGQRLEWMGVINPGSGGTNYKEKFKGRVTITADKSSSTAYMELSSLRSEDTAVYYCARGEYFFFDYWGQGTTVTVSS
# VL: DIVMTQSPDSLAVSLGERATINCKASQHVSNAVAWYQHKPGQSPKLLIYSASYRYTGVPDRFSGSGSGTDFTLTISSLQAEDVAVYYCQQHYNTPHTFGGGTKVEIK
# notes: Humanized anti-TIGIT antibody with NG-site mutation in VL
# B6: TIGIT-006-H5L3 (antibody, V domains shown)
# VH: EVQLQESGPGLVKPSETLSLTCAVSGYSMTSDYWNWIRQPPGKKLEYIGYISYSGRTYYNPSLKSRVTISRDTSKNQFSLKLSSVTAADTAVYYCARGDYSNYGGAMYDWGQGTTVTVSS
# VL: DIVMTQSPDSLAVSLGERATINCRASQGVSTTIAWYQQKPGQSPKLLIYSASYRYTGVPRFSGSGSGTDFTLTISSLQAEDVAVYYCQQYYSSPFTFGGGTKVEIK
# notes: Humanized anti-TIGIT antibody
# B7: TIGIT-070-H1L1 (antibody, V domains shown)
# VH: EVQLVQSGAEVKKPGASVKVSCKASGYTFTNYYMHWVRQAPGQRLEWMGRIDPDSGGSKYNEKFKSRVTITVDKSASTAYMELSSLRSEDTAVYYCAREGHYGFYSDYWGQGTTVTVSS
# VL: DIQMTQSPSSLSASVGDRVTITCRVSENIYSYLAWYQQKPGKSPKLLIYNAKTLAEGVPSRFSGSGSGTDFTLTISSLQPEDFATYYCQHHYGNPLTFGPGTKVDIK
# notes: Humanized anti-TIGIT antibody
# Legend:
# [1] = target: T1, human PVRIG-his (AcroBiosystems, Cat …); experiment: competition ELISA, PVRIG-His coated, competitor human PVRL2-mFc
# Experimental: The ELISA plate was pre-coated with 100 μL/well of 0.5 μg/mL human PVRIG-his protein (AcroBiosystems, Cat NO. PVG-H52H4). The tested anti-PVRIG antibodies were diluted from the highest concentration of 16 nM (two-fold concentration). The diluted antibodies were mixed with 18 ng/ml human PVRL2-mFc (AcroBiosystems, Cat NO. CD2-H5257) in equal volume, added into the plate (100 μL/well), and incubated with shaking at room temperature for 2.0 hours. […] A HRP substrate, TMB (Thermo, Cat NO. 34029) was added into wells after washing the plate again for color development. After adding a termination solution to terminate the reaction, the absorbance value was read by a microplate reader (MD i3×). An inhibiting curve was drawn with concentration of antibodies as the abscissa and the corresponding OD value as the ordinate. The IC50 value was calculated by using a Four Parameter Logistic Fit (GraphPadPrism9). The smaller the IC50 value, the stronger the ability of the antibodies inhibits the binding between PVRIG and PVRL2. The positive and negative controls are the same as in Example 8.
# [2] = target: T4, Full-length cynomolgus monkey TIGIT on CHO-K1 cells (CHO-K1 cynomolgus monkey TIGIT) (cynomolgus monkey); experiment: cell binding, CHO-K1 cynomolgus monkey TIGIT
# T4 construct: NCBI XP_015300911.1
# T4 sequence (chain, as listed by the source limits assumed): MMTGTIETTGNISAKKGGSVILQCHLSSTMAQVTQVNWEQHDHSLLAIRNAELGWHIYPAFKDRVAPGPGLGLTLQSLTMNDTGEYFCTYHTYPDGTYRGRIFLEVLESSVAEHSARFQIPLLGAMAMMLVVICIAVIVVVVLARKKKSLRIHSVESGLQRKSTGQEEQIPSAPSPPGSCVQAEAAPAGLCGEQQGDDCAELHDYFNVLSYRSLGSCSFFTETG
# Method in brief: (§1)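 Binding was measured by flow cytometry after a 60-minute, 4° C incubation of the antibodies with 2×10⁵ CHO-K1 cells displaying full-length human or cynomolgus monkey TIGIT. Antibody titration: 12 points, threefold serial dilution from 80 nM, in 1% BSA-PBS.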
# [3] = target: T2, Full-length human TIGIT on CHO-K1 cells …; experiment: cell binding, CHO-K1 human TIGIT high expression strain
# Method in brief: as §1
# [4] = target: T3, Fusion protein of extracellular domain …; experiment: FACS; blocking of TIGIT ECD-mFc binding to CHO-K1 CD155 cells
# [5] = target: T2, Full-length human TIGIT on CHO-K1 cells …; experiment: FACS; CHO-K1 human TIGIT low expression strain
# Method in brief: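 The EC50 was derived from binding curves obtained by flow cytometry on CHO-K1 cells expressing full-length TIGIT of human or cynomolgus monkey origin. Cells (2×10⁵/50 μL, 1% BSA-PBS) were mixed 1:1 with a 12-point, 3-fold antibody dilution series that began at 80 nM before mixing, then incubated for 60 min at 4° C.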
# [6] = target: T3, Fusion protein of extracellular domain …; experiment: FACS; blocking of TIGIT ECD-mFc binding to CHO-K1 CD112 cells
# Experimental: The collected CHO-K1 CD112 cells were washed once with PBS (Hyclone, CAT #SH30256) and resuspended to 2×10⁵/40 μL with 1% BSA-PBS. The anti-TIGIT humanized antibodies were diluted to 600 nM with 1% BSA-PBS (diluted by 2.5-fold serial dilution for 12 concentration points). The TIGIT ECD-mFc was diluted with 1% BSA-PBS to 6 μg/mL. The 40 μL cells were then mixed with 40 μL diluted antibodies and 40 μL diluted TIGIT ECD-mFc, and then incubated at 4° C. for 60 minutes. […] The cell samples were washed twice with PBS, resuspended to 100 μL/well with 1% BSA-PBS and then analyzed by flow cytometry (BD, Canto II). […] (f) The binding activity of anti-TIGIT humanized antibodies to human PBMCs detected by FACS.
Binder,IC50 [1],EC50 [2],EC50 [3],IC50 [4],EC50 [5],IC50 [6]
B1,0.196 nM,,,,,
B2,0.0513 nM,,,,,
B3,0.0571 nM,,,,,
B4,,0.0473 nM,0.0249 nM,0.492 nM,0.17 nM,3.49 nM
B5,,0.0566 nM,0.0439 nM,0.467 nM,0.186 nM,3.49 nM
B6,,0.0578 nM,0.022 nM,0.458 nM,0.268 nM,4.65 nM
B7,,0.0596 nM,0.026 nM,0.456 nM,0.305 nM,4.3 nM
